From patent publication US9266964
Residue numbers refer to the chain shown, from its start.

B1: M9-A03 (Fab, V domains shown)
VH: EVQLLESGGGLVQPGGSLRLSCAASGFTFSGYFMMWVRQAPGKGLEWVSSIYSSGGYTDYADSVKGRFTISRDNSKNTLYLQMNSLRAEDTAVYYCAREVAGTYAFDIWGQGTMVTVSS
VL: DIQMTQSPSSLSASLGDRVTITCRASQNIDIYLNWYQQTPGKAPKLLIYGAYNLQSGVPSRFSGSGSGTDFTLTISSLQPEDFGTYYCQQSYGTPVFGQGTKLEIK
notes: Fab fragment (E. coli TG1); printed HC runs into the start of CH1
B2: M8-E06 (Fab, V domains shown)
VH: EVQLLESGGGLVQPGGSLRLSCAASGFTFSHYFMTWVRQAPGKGLEWVSSIVPSGGMTQYADSVKGRFTISRDNSKNTLYLQMNSLRAEDTAVYYCARDSYSSSWFDIWGQGTMVTVSS
VL: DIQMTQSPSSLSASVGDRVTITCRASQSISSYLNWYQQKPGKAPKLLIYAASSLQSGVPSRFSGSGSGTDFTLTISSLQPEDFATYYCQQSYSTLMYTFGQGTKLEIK
notes: as for B1
B3: M6-D08 (Fab, V domains shown)
VH: EVQLLESGGGLVQPGGSLRLSCAASGFTFSRYHMVWVRQAPGKGLEWVSSISPSGGWTNYADSVKGRFTISRDNSKNTLYLQMNSLRAEDTAMYYCAREMATIAGQFDPWGQGTLVTVSS
VL: DIQMTQSPSSLSASVGDRVTITCRASQSISSYLNWYQQKPGKAPKLLIYGASSLQSGVPSRFSGSGSGTDFTLTISSLQPEDSATYYCQQSYTRWTFGQGTKVEIK
notes: Fab fragment (E. coli TG1); printed HC runs into the start of CH1; The LC is printed with an amber codon 'q' (WYqQK), written here as Q
B4: M76-G02 (Fab, V domains shown)
VH: EVQLLESGGGLVQPGGSLRLSCAASGFTFSLYAMWWVRQAPGKGLEWVSYISSSGGFTSYADSVKGRFTISRDNSKNTLYLQMNSLRAEDTAVYYCARYRVGVAATDYWGQGTLVTVSS
VL: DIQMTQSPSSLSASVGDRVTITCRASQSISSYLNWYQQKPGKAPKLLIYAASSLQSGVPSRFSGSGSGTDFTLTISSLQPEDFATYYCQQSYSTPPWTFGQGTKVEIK
notes: as for B1
B5: M77-C07 (Fab, V domains shown)
VH: B4 VH with A33I, W35G, Y50G, S52Y, S53P, S59M, Y99E, R100S, V101S, T106P
VL: DIQMTQSPSTLSASVGDRVTITCRASQNISSYLNWYQQKPGKAPKLLIYAASSLQSGVPSRFSGSGSGTDFTLTISSLQPEDFATYSCQQSYSTPRTFGQGTKVEIK
notes: as for B1
B6: M8-D05 (Fab, V domains shown)
VH: EVQLLESGGGLVQPGGSLRLSCAASGFTFSLYNMNWVRQAPGKGLEWVSSISPSGGFTDYADSVKGRFTISRDNSKNTLYLQMNSLRAEDTAVYYCARDLDLGILDYWGQGTLVTVSS
VL: DIQMTQSPSFVSASVGDRVTITCRASQDISSWLVWYQQKPGKGPKLLIYDASNLQSGVPSRFSGGGSGTHFTLTISSLQPEDFATYYCQQADGFPLTFGGGTKVEMK
notes: as for B1
B7: M8-G09 (Fab, V domains shown)
VH: EVQLLESGGGLVQPGGSLRLSCAASGFTFSLYEMLWVRQAPGKGLEWVSVIYPSGGYTDYADSVKGRFTISRDNSKNTLYLQMNSLRAEDMAVYYCARSFSGFGEIDYWGQGTLVTVSS
VL: DIQMTQSPSSLSASVGDTVTITCRASQGVSYYLAWFQQKPGKAPKSLIYGASSLQSGVPSKFSGSGSGTVFTLTISSLQPDDFATYYCQQYNTYPPTFGQGTRLDIK
notes: as for B1
B8: M77-H04 (Fab, V domains shown)
VH: EVQLLESGGGLVQPGGSLRLSCAASGFTFSYYTMIWVRQAPGKGLEWVSGIRSSGGGTRYADSVKGRFTISRDNSKNTLYLQMNSLRAEDTAVYYCAKDGSRYSYGSIYYYYGMDAWGQGTTVTVSS
VL: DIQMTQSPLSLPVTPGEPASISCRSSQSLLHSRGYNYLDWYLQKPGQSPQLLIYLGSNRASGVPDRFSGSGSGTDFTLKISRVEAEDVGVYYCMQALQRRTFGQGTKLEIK
notes: as for B1
B9: M6-G05 (Fab, V domains shown)
VH: EVQLLESGGGLVQPGGSLRLSCAASGFTFSRYRMVWVRQAPGKGLEWVSSIYPSGGMTAYADSVKGRFTISRDNSKNTLYLQMNSLRAEDTAVYYCARDAVGIGDAFDIWGQGTMVTVSS
VL: DIQMTQSPSSLSASVGDRVTITCRASQSISTYLNWYQLKPGKAPKLLIYNAFSMERGVPSTISGSGSGTDFTLTISSLQPEDFATYYCQQSYTTPTTFGQGTKVEIK
notes: as for B1
B10: M6-A06 (Fab, V domains shown)
VH: EVQLLESGGGLVQPGGSLRLSCAASGFTFSLYQMTWVRQAPGKGLEWVSGIWPSGGFTDYADSVKGRFTISRDNSKNTLYLQMNSLRAEDTAVYYCARVSTAVADNDYWGQGTLVTVSS
VL: DIQMTQSPSSLSASVGDSVTISCRASQSISMYLNWYQHKPGKAPKLLIYGTSSLQSGVPSRFSGSGPGGTDFTLTISSLQPEDFATYYCQQSYSAPWTFGQGTKVEIK
notes: as for B1
B11: M6-D03 (Fab, V domains shown)
VH: B10 VH with L31K, Q33F, T35G, G50V, W52G, P53S, F57W, D59S
VL: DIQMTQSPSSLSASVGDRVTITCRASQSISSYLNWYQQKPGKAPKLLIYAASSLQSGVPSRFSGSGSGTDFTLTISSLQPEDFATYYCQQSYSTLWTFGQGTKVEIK
notes: as for B1
B12: M8-C04 (Fab, V domains shown)
VH: EVQLLESGGGLVQPGGSLRLSCAASGFTFSYYPMQWVRQAPGKGLEWVSYIYPSGGLTSYADSVKGRFTISRDNSKNTLYLQMNSLRAEDTAVYYCARLFYGSGSVGFEYWGQGTLVTVSS
VL: QSALTQPPSVSVSPGQTASITCSGDKLGDKYTSWHQQKPGQSPVLVIYQDSKRPSGIPERFSGSNSGNTATLTISGTQAMDEADYYCQAWDSSTVFGGGTRLTVL
notes: as for B1
B13: M8-H04 (Fab, V domains shown)
VH: EVQLLESGGGLVQPGGSLRLSCAASGFTFSGYWMGWVRQAPGKGLEWVSSISSSGGWTQYADSVKGRFTISRDNSKNTLYLQMNSLRAEDTATYYCARDDEIAAGGAFDIWGQGAMVTVSS
VL: DIQMTQSPSSLSASIGDRVTITCRASQYISTYLNWYEQKPGKAPKLLIYGTSSLQSGVPSRFSGSGSGTEFSLTISSLQPEDFATYYCQQSFTTPFTFGQGTKLEIK
notes: as for B1
B14: M76-H02 (Fab, V domains shown)
VH: EVQLLESGGGLVQPGGSLRLSCAASGFTFSMYWMQWVRQAPGKGLEWVSYIYPSGGPTKYADSVKGRFTISRDNSKNTLYLQMNSLRAEDTAVYYCARPSGSYGDAFDIWGQGTMVTVSS
VL: DIQMTQSPSSLSASEGDRVTITCRASQDISVYLNWYQMKSGKAPKLLIYGGASLQSGVPARFSGSGYGTDFTLTITDLRPEDFATYYCQQSYSLPFTFGGGTKVEIK
notes: as for B1
B15: M76-G06 (Fab, V domains shown)
VH: EVQLLESGGGLVQPGGSLRLSCAASGFTFSGYIMHWVRQAPGKGLEWVSWIYPSGGWTEYADSVKGRFTISRDNSKNTLYLQMNSLRAEDTAVYYCARDAPGVGAIDYWGQGTLVTVSS
VL: DIQMTQSPSSLSASVRDRVTITCRASQSISTYLNWYQQKPGEAPKLLVFAASSLQSGVPSRFSGSGSGTDFTLSISSLQPEDFATYYCQQSYSTPHTFGQGAKVEIK
notes: as for B1
B16: M6-A08 (Fab, V domains shown)
VH: EVQLLESGGGLVQPGGSLRLSCAASGFTFSPYPMQWVRQAPGKGLEWVSSISSSGGMTEYADSVKGRFTISRDNSKNTLYLQMNSLRAEDTAVYYCARDDYGGKGGAFDIWGQGTMVTVSS
VL: DIQMTQSPSSLSASVGDRVTITCRASQRISFYLNWFQQKPGKAPNLLIYGASSLQSGVPSRFSGSGSGTDFTLTISSLQPKDFGTYYCQQTFSTPNTFGQGTKLEIK
notes: as for B1
B17: M76-F02 (Fab, V domains shown)
VH: EVQLLESGGGLVQPGGSLRLSCAASGFTFSLYDMNWVRQAPGKGLEWVSGISPSGGQTMYADSVKGRFTISRDNSKNTLYLQMNSLRAEDTAVYYCARQPMISAFDIWGQGTMVTVSS
VL: DIQMTQSPSSLSASVGDRVTITCRASQTIDNYLHWYQQKPGKAPKVLIHDASSLQSGVPPRFSGSGSGTDFTLTISSLQPEDFATYYCQQSYDTPQYTFGQGTKLEIK
notes: as for B1

molecular target: T1, human plasma kallikrein (human, UniProt P03952 20-390; P03952 391-638); assay: ELISA; signal on coated biotinylated human plasma kallikrein divided by signal on streptavidin; Fab
T1 construct: two disulfide-linked chains; also called pKal; human pKal
T1 sequence (P03952 20-390, chain 1 of 2): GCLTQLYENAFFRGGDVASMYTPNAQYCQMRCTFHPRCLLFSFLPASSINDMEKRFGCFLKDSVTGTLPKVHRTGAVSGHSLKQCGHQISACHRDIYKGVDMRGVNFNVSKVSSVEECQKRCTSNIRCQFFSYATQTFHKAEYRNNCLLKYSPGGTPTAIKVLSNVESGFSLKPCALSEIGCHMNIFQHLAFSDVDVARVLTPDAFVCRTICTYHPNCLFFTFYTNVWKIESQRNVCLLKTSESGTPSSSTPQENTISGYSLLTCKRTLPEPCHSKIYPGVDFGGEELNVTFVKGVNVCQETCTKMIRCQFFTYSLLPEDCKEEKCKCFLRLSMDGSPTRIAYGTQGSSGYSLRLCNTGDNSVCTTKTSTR
T1 sequence (P03952 391-638, chain 2 of 2): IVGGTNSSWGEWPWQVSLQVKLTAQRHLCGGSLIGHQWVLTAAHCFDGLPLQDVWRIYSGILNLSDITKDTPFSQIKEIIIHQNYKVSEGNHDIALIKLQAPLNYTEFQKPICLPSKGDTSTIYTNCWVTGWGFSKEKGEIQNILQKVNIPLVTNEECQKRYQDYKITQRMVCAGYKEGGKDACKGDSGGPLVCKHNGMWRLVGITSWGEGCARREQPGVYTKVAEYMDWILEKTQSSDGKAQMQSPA
Text: Abbreviations used: "T/B" is the ELISA signal obtained using of the target (biotinylated plasma kallikrein) divided by the ELISA signal of the "background" (streptavidin); both of which were coated on microtiter plates. "nd" is not determined. The symbol "q" refers to the amber suppressible stop codon (TAG), which is translated as glutamine (Q) in strains of E. coli such as the TG1 cells that were used to express the Fab fragments.

Binder | Human pKal ELISA (T/B)
B1 | 14.4 T/B (target signal / background signal)
B2 | 8.8 T/B (target signal / background signal)
B3 | 16 T/B (target signal / background signal)
B4 | 10.3 T/B (target signal / background signal)
B5 | 16.1 T/B (target signal / background signal)
B6 | 11.9 T/B (target signal / background signal)
B7 | 28.2 T/B (target signal / background signal)
B8 | 7.6 T/B (target signal / background signal)
B9 | 18.5 T/B (target signal / background signal)
B10 | 11.7 T/B (target signal / background signal)
B11 | 15.5 T/B (target signal / background signal)
B12 | 44.7 T/B (target signal / background signal)
B13 | 3.3 T/B (target signal / background signal)
B14 | 13.4 T/B (target signal / background signal)
B15 | 11.8 T/B (target signal / background signal)
B16 | 23.4 T/B (target signal / background signal)
B17 | 6.4 T/B (target signal / background signal)
